Assay results from paper PMC10415144, “Structural insights into CodY activation and DNA recognition” (Nucleic Acids Research, 2021).

Tests used:
[1] = target: the molecule itself; assay: mass photometry; Refeyn OneMP; 100 nM CodY, ligand-free, 20 mM Tris-HCl pH 8, 200 mM NaCl
[2] = target: the molecule itself; assay: mass photometry + SEC-MALS; data not shown; EfCodY quadruple mutant in solution

B1: Enterococcus faecalis CodY (EfCodY), full length (natural protein)
chain: GAMATLLEKTRQVNELLQKNNLFDVQAELPYNKMAMILGDILESNAYIISSSGDLLGYTEKLDVNNARIKNMFKEKKFPQGYTEAVDMLKVTEANIPIDSDLTAFPFESRELYPFGLTTIVPLYGAGKRLGTIILARVEKSFNEDDLVLAEYSATVVGMQILYHQSRTIEAEVRSATAVQMAINTLSYSELKAVHAIFEALDGEEGRLTASSIADEIGITRSVIVNALRKLESAGIIESRSLGMKGTYLKVLNQQFIKELEK
notes: also called CodY from Ef
stoichiometry N [1]: 2

B2: EfCodY quadruple mutant (Tyr186, Arg238, Leu240 and Tyr246 replaced with Ala) (natural protein)
chain: GAMATLLEKTRQVNELLQKNNLFDVQAELPYNKMAMILGDILESNAYIISSSGDLLGYTEKLDVNNARIKNMFKEKKFPQGYTEAVDMLKVTEANIPIDSDLTAFPFESRELYPFGLTTIVPLYGAGKRLGTIILARVEKSFNEDDLVLAEYSATVVGMQILYHQSRTIEAEVRSATAVQMAINTLSASELKAVHAIFEALDGEEGRLTASSIADEIGITRSVIVNALRKLESAGIIESASAGMKGTALKVLNQQFIKELEK
notes: also called EfCodY-mutant
stoichiometry N [2]: 2
